Measurements published in the supplement of paper PMC7877785.
± gives the uncertainty stated by the source.

Experiment: self-splicing fitness, log relative to wild type (ln ratio); higher = more splicing; Tetrahymena group I intron in knt gene, E. coli kanamycin selection, DiMSum; sequences stand for … in CUCUCU…GGAGGGAAAAGUUAUCAGGCAUGCACCUGGUAGCUAGUCUUUAAACCAAUAGAUUGCAUCGGUUUAAAAGGCAAGACCGUCAAAUUGCGGGAAAGGGGUCAACAGCCGUUCAGUACCAAGUCUCAGGGGAAACUUUGAGAUGGCCUUGCAAAGGGUAUGGUAAUAAGCUGACGGACAUGGUCCUAACCACGCAGCCAAGUCCUAAGUCAACAGAUCUUCUGUUGAUAUGGAUGCAGUUCACAGACUAAAUGUCGGUCGGGGAAGAUGUAUUCUUCUCAUAAGAUAUAGUCGGACCUCUCCUUAAUGGGAGCUAGCGGAUGAAGUGAUGCAACACUGGAGCCGCUGGGAACUAAUUUGUAUGCGAAAGUAUAUUGAUUAGUUUUGGAGUACUCGUGGUCG
How it was run: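 The eight P1ex-region nucleotides of an intron in the knt kanamycin-resistance gene on pET-22b(+) were all randomised and the library put into E. coli BL21(DE3). Six replicate transformations were grown overnight at 37°C or 30°C on LB agar with or without 25 μg/mL kanamycin, together with 100 μg/mL carbenicillin, 50 μM IPTG and 0.2% rhamnose. Colonies were pooled and amplicon-sequenced on an Illumina HiSeq 2500. Fitness from DiMSum is the error-weighted combination of wild-type-normalised replicate fold changes, kanamycin over none.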

| Sequence | self-splicing fitness (ln) (30 °C) | self-splicing fitness (ln) (37 °C) |
| --- | --- | --- |
| UUGAAGCAAUAUUACGAGGA | -2.32 ± 0.16 | -0.555 ± 0.19 |
| UUGAAGCAAUAUUACGAGUU | -3.34 ± 0.17 | -1.58 ± 0.17 |
| UUGAAGCAAUAUUACGAUUC | -2.33 ± 0.18 | -2.3 ± 0.28 |
| UUGAAGCAAUAUUACGAUUU | -1.58 ± 0.17 | -0.941 ± 0.18 |
| UUGAAGCAAUAUUACGCCUA | 0.0255 ± 0.13 | 0.487 ± 0.22 |
| UUGAAGCAAUAUUACGCGUA | -0.169 ± 0.069 | -0.247 ± 0.098 |
| UUGAAGCAAUAUUACGCUAA | -0.361 ± 0.085 | -0.109 ± 0.097 |
| UUGAAGCAAUAUUACGCUCG | 0.0719 ± 0.11 | 0.419 ± 0.14 |
| UUGAAGCAAUAUUACGCUUC | -2.86 ± 0.49 | -2.06 ± 0.39 |
| UUGAAGCAAUAUUACGGACC | -1.12 ± 0.14 | -0.125 ± 0.2 |
| UUGAAGCAAUAUUACGGAGA | -0.684 ± 0.11 | -0.479 ± 0.15 |
| UUGAAGCAAUAUUACGGCCG | 0.53 ± 0.14 | 0.318 ± 0.22 |
| UUGAAGCAAUAUUACGGCGG | 0.15 ± 0.11 | 0.55 ± 0.13 |
| UUGAAGCAAUAUUACGGGGA | -0.685 ± 0.08 | 0.372 ± 0.12 |
| UUGAAGCAAUAUUACGGGUA | -0.282 ± 0.065 | -0.527 ± 0.081 |
| UUGAAGCAAUAUUACGGUAC | -2.04 ± 0.22 | -2.44 ± 0.31 |
| UUGAAGCAAUAUUACGUAAU | -3.46 ± 0.21 | -1.06 ± 0.13 |
| UUGAAGCAAUAUUACGUAUA | -1.25 ± 0.11 | -0.207 ± 0.14 |
| UUGAAGCAAUAUUACGUCGA | 0.473 ± 0.084 | 0.333 ± 0.093 |
| UUGAAGCAAUAUUACGUCGC | -3.48 ± 0.23 | -1.49 ± 0.24 |
| UUGAAGCAAUAUUACGUCUC | -3.24 ± 0.28 | -1.28 ± 0.23 |
| UUGAAGCAAUAUUACGUGAG | -0.592 ± 0.067 | -0.805 ± 0.093 |
| UUGAAGCAAUAUUACGUGCC | -2.27 ± 0.15 | -0.402 ± 0.16 |
| UUGAAGCAAUAUUACGUGCG | -0.232 ± 0.063 | -0.131 ± 0.078 |
| UUGAAGCAAUAUUACGUGCU | -3.06 ± 0.17 | -1.97 ± 0.16 |

| Sequence | self-splicing fitness (ln) (30 °C) | self-splicing fitness (ln) (37 °C) |
| --- | --- | --- |
| UUGAAGCAAUAUUACGUGGU | -3.78 ± 0.25 | -2.94 ± 0.34 |
| UUGCAGCAAUAUUACGACAG | -0.32 ± 0.11 | 0.414 ± 0.15 |
| UUGCAGCAAUAUUACGACCA | -1.8 ± 0.24 | -0.0142 ± 0.18 |
| UUGCAGCAAUAUUACGAGGA | -2.08 ± 0.18 | -0.954 ± 0.14 |
| UUGCAGCAAUAUUACGAGGG | -2.78 ± 0.15 | -0.707 ± 0.15 |
| UUGCAGCAAUAUUACGCAAA | -1.35 ± 0.21 | -2.35 ± 0.39 |
| UUGCAGCAAUAUUACGCAGG | -3.72 ± 0.25 | -2.68 ± 0.25 |
| UUGCAGCAAUAUUACGCCAA | -1.25 ± 0.19 | 0.228 ± 0.24 |
| UUGCAGCAAUAUUACGCGAG | -3.18 ± 0.12 | -1.73 ± 0.12 |
| UUGCAGCAAUAUUACGGAUG | -2.29 ± 0.085 | -1.21 ± 0.1 |
| UUGCAGCAAUAUUACGGAUU | -2.96 ± 0.23 | -2.91 ± 0.33 |
| UUGCAGCAAUAUUACGGCCC | -1.83 ± 0.31 | -0.271 ± 0.47 |
| UUGCAGCAAUAUUACGGCCG | -1.21 ± 0.096 | -0.459 ± 0.12 |
| UUGCAGCAAUAUUACGGGAC | -3.01 ± 0.25 | -2.37 ± 0.39 |
| UUGCAGCAAUAUUACGGGCC | -3.8 ± 0.22 | -2.3 ± 0.17 |
| UUGCAGCAAUAUUACGUAAU | -2.83 ± 0.098 | -2.24 ± 0.14 |
| UUGCAGCAAUAUUACGUCCG | -1.24 ± 0.1 | 0.0449 ± 0.14 |
| UUGCAGCAAUAUUACGUGUA | -1.52 ± 0.11 | -1.07 ± 0.1 |
| UUGCAGCAAUAUUACGUGUG | -2.1 ± 0.087 | -1.68 ± 0.12 |
| UUGGAGCAAUAUUACGAAAC |  | -2.22 ± 0.37 |
| UUGGAGCAAUAUUACGCAAG | -1.51 ± 0.22 | -2.65 ± 0.44 |
| UUGGAGCAAUAUUACGCAGU | -1.93 ± 0.34 | -2.84 ± 0.48 |
| UUGGAGCAAUAUUACGCUCU | -4.19 ± 0.39 |  |
| UUGGAGCAAUAUUACGCUUA | -2.03 ± 0.16 | -2.35 ± 0.23 |
| UUGGAGCAAUAUUACGCUUC | -3.11 ± 0.34 | -0.757 ± 0.28 |

| Sequence | self-splicing fitness (ln) (30 °C) | self-splicing fitness (ln) (37 °C) |
| --- | --- | --- |
| UUGGAGCAAUAUUACGGAGC | -1.47 ± 0.38 |  |
| UUGGAGCAAUAUUACGGCAA | -0.805 ± 0.23 | -0.671 ± 0.32 |
| UUGGAGCAAUAUUACGGCAU |  | -1.76 ± 0.24 |
| UUGGAGCAAUAUUACGGGAC | -4 ± 0.48 | -0.322 ± 0.34 |
| UUGGAGCAAUAUUACGGUCU | -3.4 ± 0.49 | -2.45 ± 0.48 |
| UUGGAGCAAUAUUACGGUGG | -3.06 ± 0.16 | -3.08 ± 0.23 |
| UUGGAGCAAUAUUACGGUGU | -3.09 ± 0.32 | -1.64 ± 0.32 |
| UUGGAGCAAUAUUACGUCAU | -3.84 ± 0.47 | -1.45 ± 0.34 |
| UUGGAGCAAUAUUACGUCCG | -2.22 ± 0.29 | -1.27 ± 0.4 |
| UUGGAGCAAUAUUACGUGCA |  | -1.94 ± 0.31 |
| UUGGAGCAAUAUUACGUGGA | -2.9 ± 0.33 | -2.24 ± 0.25 |
| UUGGAGCAAUAUUACGUUGU | -4.09 ± 0.36 | -1.77 ± 0.26 |
| UUGUAGCAAUAUUACGAAAC |  | -2.66 ± 0.48 |
| UUGUAGCAAUAUUACGAACG | -1.69 ± 0.31 | -0.376 ± 0.26 |
| UUGUAGCAAUAUUACGAAGU | -2.54 ± 0.28 | -2.56 ± 0.48 |
| UUGUAGCAAUAUUACGACGU | -1.48 ± 0.09 | -0.671 ± 0.12 |
| UUGUAGCAAUAUUACGAGCA | -1.49 ± 0.24 | -0.799 ± 0.2 |
| UUGUAGCAAUAUUACGAGCG | -1.01 ± 0.14 | -0.454 ± 0.28 |
| UUGUAGCAAUAUUACGAUCG | -1.06 ± 0.14 | 0.103 ± 0.23 |
| UUGUAGCAAUAUUACGAUCU |  | -2.38 ± 0.27 |
| UUGUAGCAAUAUUACGCACG | -1.14 ± 0.11 | -0.742 ± 0.13 |
| UUGUAGCAAUAUUACGCAGG | -1.6 ± 0.24 | 0.28 ± 0.17 |
| UUGUAGCAAUAUUACGCUAG | -2.06 ± 0.22 | -0.816 ± 0.21 |
| UUGUAGCAAUAUUACGGGCU | -2.88 ± 0.29 | -1.62 ± 0.22 |
| UUGUAGCAAUAUUACGGGGA | -1.98 ± 0.26 | -0.346 ± 0.17 |

| Sequence | self-splicing fitness (ln) (30 °C) | self-splicing fitness (ln) (37 °C) |
| --- | --- | --- |
| UUGUAGCAAUAUUACGGGUG | -2.02 ± 0.11 | -0.808 ± 0.096 |
| UUGUAGCAAUAUUACGGGUU | -4.7 ± 0.34 | -2.83 ± 0.3 |
| UUGUAGCAAUAUUACGUAAA | -1.72 ± 0.22 | -0.0948 ± 0.21 |
| UUGUAGCAAUAUUACGUGAU | -3.14 ± 0.17 | -1.01 ± 0.15 |
| UUUAAGCAAUAUUACGACGU | -1.73 ± 0.15 | -0.17 ± 0.15 |
| UUUAAGCAAUAUUACGAGUU | -2.48 ± 0.17 | -2.09 ± 0.17 |
| UUUAAGCAAUAUUACGAUAG | -0.412 ± 0.096 | -0.23 ± 0.097 |
| UUUAAGCAAUAUUACGAUCU | -1.05 ± 0.1 | -0.724 ± 0.13 |
| UUUAAGCAAUAUUACGAUGU | -2.45 ± 0.14 | -1.96 ± 0.18 |
| UUUAAGCAAUAUUACGCCGG | -0.192 ± 0.089 | 0.194 ± 0.11 |
| UUUAAGCAAUAUUACGCCUU | -0.228 ± 0.34 | -1.35 ± 0.36 |
| UUUAAGCAAUAUUACGCGAC | -2.4 ± 0.18 | -2.75 ± 0.22 |
| UUUAAGCAAUAUUACGCGCG | 0.181 ± 0.12 | -0.26 ± 0.14 |
| UUUAAGCAAUAUUACGCGGA | -1.6 ± 0.098 | -0.0901 ± 0.084 |
| UUUAAGCAAUAUUACGCUUU | -3.6 ± 0.35 | -2.95 ± 0.23 |
| UUUAAGCAAUAUUACGGAAA | -2.33 ± 0.23 | -0.53 ± 0.23 |
| UUUAAGCAAUAUUACGGAGA | -2.18 ± 0.21 | -0.727 ± 0.17 |
| UUUAAGCAAUAUUACGGGAG | -1.75 ± 0.089 | -1.32 ± 0.1 |
| UUUAAGCAAUAUUACGGGGA | -1.27 ± 0.1 | -0.724 ± 0.11 |
| UUUAAGCAAUAUUACGGUUC | -3.56 ± 0.21 | -2.47 ± 0.2 |
| UUUAAGCAAUAUUACGUAAC | -3.67 ± 0.29 | -2.17 ± 0.19 |
| UUUAAGCAAUAUUACGUAGG | -0.802 ± 0.058 | -0.287 ± 0.086 |
